These are literature values, as cited in paper PMC8780439.

Data set [1] concerns the target Synaptotagmin II (Homo sapiens) (UniProt Q8N9I0).
The target of data set [2] is Synaptotagmin II (Mus musculus) (UniProt P46097).
The target of data set [3] is Synaptotagmin I (Homo sapiens) (UniProt P21579).
UniProt P21579, sequence (P21579 whole entry): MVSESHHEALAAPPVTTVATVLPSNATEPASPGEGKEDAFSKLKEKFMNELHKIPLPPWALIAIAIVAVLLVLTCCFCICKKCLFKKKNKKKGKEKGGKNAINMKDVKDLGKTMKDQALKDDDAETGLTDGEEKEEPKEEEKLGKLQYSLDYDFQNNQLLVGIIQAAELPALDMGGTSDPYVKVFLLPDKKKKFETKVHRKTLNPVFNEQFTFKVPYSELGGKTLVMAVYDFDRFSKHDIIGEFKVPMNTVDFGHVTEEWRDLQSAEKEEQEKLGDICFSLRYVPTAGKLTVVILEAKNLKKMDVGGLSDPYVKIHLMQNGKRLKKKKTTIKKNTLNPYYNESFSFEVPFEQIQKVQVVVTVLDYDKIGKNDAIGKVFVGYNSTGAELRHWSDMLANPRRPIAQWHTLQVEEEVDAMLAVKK

UniProt Q8N9I0, sequence (Q8N9I0 whole entry): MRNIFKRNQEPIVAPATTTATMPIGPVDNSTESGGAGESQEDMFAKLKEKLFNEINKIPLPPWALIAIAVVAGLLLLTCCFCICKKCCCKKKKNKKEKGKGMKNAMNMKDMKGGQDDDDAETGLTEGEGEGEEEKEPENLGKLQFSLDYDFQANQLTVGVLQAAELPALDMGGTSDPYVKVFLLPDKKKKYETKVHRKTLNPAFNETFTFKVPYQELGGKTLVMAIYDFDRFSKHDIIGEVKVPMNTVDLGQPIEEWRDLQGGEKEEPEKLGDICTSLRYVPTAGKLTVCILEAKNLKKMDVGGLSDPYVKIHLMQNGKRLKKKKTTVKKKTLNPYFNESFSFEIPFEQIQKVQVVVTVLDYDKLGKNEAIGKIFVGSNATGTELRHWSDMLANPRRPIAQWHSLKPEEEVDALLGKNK
UniProt P46097, sequence (P46097 whole entry): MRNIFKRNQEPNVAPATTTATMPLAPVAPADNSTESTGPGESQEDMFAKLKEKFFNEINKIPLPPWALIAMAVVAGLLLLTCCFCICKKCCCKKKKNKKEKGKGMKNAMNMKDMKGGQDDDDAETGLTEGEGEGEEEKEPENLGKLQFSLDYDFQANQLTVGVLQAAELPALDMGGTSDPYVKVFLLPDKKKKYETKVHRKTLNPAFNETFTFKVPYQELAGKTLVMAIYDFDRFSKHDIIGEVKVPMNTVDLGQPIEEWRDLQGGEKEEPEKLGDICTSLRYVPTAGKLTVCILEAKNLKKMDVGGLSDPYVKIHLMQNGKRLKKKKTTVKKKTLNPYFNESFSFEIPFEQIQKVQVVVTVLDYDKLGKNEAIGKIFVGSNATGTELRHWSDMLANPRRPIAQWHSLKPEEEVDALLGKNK

For “BoNT/B heavy chain (from UniProt B1INP5)”, the Kd in data set [1] is over 20 µM; in data set [2], 0.13 µM.
Regarding BoNT/B (from UniProt P10844), the Kd in data set [3] is over 20 µM.

Broadly, the Kd is a measure of binding affinity in units of concentration.
